One block for each binder: values may come before it.
Columns and labels:
rabbit TG2 = rabbit TG2 (rabbit); experiment: cell-based or functional assay
[1] = target: T1, human transglutaminase type 2 (TG2) (human, UniProt P21980 2-687); experiment: cell-based or functional assay
T1 sequence: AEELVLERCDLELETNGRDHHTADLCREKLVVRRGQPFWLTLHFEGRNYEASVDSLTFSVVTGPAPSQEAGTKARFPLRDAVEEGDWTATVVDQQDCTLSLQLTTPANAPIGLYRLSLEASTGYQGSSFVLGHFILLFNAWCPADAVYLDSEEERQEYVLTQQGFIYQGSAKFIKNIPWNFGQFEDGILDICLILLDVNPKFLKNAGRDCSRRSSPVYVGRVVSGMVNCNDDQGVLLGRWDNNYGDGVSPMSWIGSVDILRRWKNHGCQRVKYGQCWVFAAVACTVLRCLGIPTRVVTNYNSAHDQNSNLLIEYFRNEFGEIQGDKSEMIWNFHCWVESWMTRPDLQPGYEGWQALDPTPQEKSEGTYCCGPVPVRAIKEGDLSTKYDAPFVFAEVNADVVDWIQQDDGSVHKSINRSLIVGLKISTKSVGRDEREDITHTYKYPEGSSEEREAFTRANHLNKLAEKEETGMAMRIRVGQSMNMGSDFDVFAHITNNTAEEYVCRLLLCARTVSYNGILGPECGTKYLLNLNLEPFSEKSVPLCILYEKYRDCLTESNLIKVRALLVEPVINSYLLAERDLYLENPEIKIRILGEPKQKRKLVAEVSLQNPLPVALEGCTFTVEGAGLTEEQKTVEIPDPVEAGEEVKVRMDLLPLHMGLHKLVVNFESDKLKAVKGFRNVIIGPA

- IC50 against rabbit TG2 (assay not given) (rabbit TG2): 8 nM
- IC50 against human TG2 (assay not given) [1]: 0.3 nM
B1: rbBB7 (antibody, V domains shown)
VH: EVQLLESGGRLVTPGGSLTLTCAASGIIFSSSAMSWVRQAPGKGLEWVATISSGGRSTYYPDSVKGRFTVSRDSSKNTLYLQMNSLRAEDTAVYYCAKLISPYWGQGTLVTVSS
VL: AIKMTQTPSSVSAAVGGTVTISCKASQDINSYLTWFQQKPGQPPKTLIYLTNRLMDGVPSRFSGSGSGQEFLLTISGLECDDAATYYCLQYVDFPYTFGGGTKVVVK

- IC50 against rabbit TG2 (assay not given) (rabbit TG2): 103 nM
- IC50 against human TG2 (assay not given) [1]: 0.25 nM
B2: Zampilimab (antibody, V domains shown)
VH: EVQLLESGGGLVQPGGSLRLSCAASGFTLSTHAMSWVRQAPGKGLEWVATISSGGRSTYYPDSVKGRFTISRDNSKNTLYLQMNSLRAEDTAVYFCARLISTYWGQGTLVTVSS
VL: DITMTQSPSSLSASVGDRVTITCKASQDINSYLTWFQQKPGKAPKILIYLVNRLVDGVPSRFSGSGSGQDYALTISSLQPEDFATYYCLQYDDFPYTFGQGTKVEIK

From patent US20250019463A1 (UCB, published 2025)
